In the RNAGym collection of RNA variant scans (doi:10.7554/elife.80360):

B1: Hairpin Ribozyme (parent)
chain: GUCCUCUUUCACGUGCGCGUGAAAGAGAGAAGUGAACCAGAGAAACACACGUUGUGGUAUAUUACCUGGUA

Variants of: B1
Assay: self-cleavage, relative activity (ratio to wild type); higher = more cleavage; co-transcriptional

Variant | self-cleavage
GCCCUCUUUCACGUGCGCGUGAAAGAGAGAAGAGAACCAGAGAAACACACGUUGUGGUAUAUUACCUGGUA [U2C U33A] | 0.0916
GGCCUCUUUCACGUGCGCGUGAAAGAGACAAGUGAACCAGAGAAACACACGUUGUGGUAUAUUACCUGGUA [U2G G29C] | 0.122
GGCCUCUUUCACGUGCGCGUGAAAGAGAGAAGUGAACCAGAGAAACACACGUUGUGGUAUAUUAGCUGGUA [U2G C65G] | 0.0852
GGCCUCUUUCACGUGCGCGUGAAAGAGAGAAGUGAACCAGAGUAACACACGUUGUGGUAUAUUACCUGGUA [U2G A43U] | 0.102
GGCCUCUUUCACGUGCGCGUGAAAGAGAGAAGUGAACCAGAGGAACACACGUUGUGGUAUAUUACCUGGUA [U2G A43G] | 0.21
GGCCUCUUUCACGUGCGCGUGAAAGAGAGAAGUGAACCAGAGAAACACACCUUGUGGUAUAUUACCUGGUA [U2G G51C] | 0.359
GCCCUCUUUCACGUGCGCGUGAAAGAGAGAAGUGAACCAGAGAAACACACGUUGUGGUAUAUUACCUGGAA [U2C U70A] | 0.241
GGCCUCUUUCACGUGCGCGUGAAAGAGAGAAGUGAACCAGAGAAACACACGUUGUGUUAUAUUACCUGGUA [U2G G57U] | 0.209
GGCCUCUUUCACGUGCGCGUGAAAGAGAGAAGUGAACCAGAGAAACACACGUUGUGGUAUAUUACCUGGUC [U2G A71C] | 0.77
GGCCUCUUUCACGUGCGCGUGAAAGAGAGAAGUGAAGCAGAGAAACACACGUUGUGGUAUAUUACCUGGUA [U2G C37G] | 0.0975
GGCCUCUUUCACGUGCGCGUGAAAGAGAGAAGUGAACCAGAGAAACACACGUUGUGGUAUACUACCUGGUA [U2G U62C] | 0.0918
GGCCUCUUUCACGUGCGCGUGUAAGAGAGAAGUGAACCAGAGAAACACACGUUGUGGUAUAUUACCUGGUA [U2G A22U] | 0.259
GGCCUCUUUCACGUGCGCGUGAAAGAGAGAAGUGAACCAGAGAAACACACGUUGUCGUAUAUUACCUGGUA [U2G G56C] | 0.0624
GGCCUCUUUCACGUGCGCGUGAAAGAGAGAAGUGAACCAGAGAAACACACGUUGUUGUAUAUUACCUGGUA [U2G G56U] | 0.0924
GGCCUCUUUCACGUGCGCGUGAAAGAGAGAAGUGAACCAGAGAAACACACGUUGUGGUAUAUUACCUGAUA [U2G G69A] | 0.109
GGCCUCUUUCACGUGCGCGUGAAAGAGAGAAGUGAACCAGAGAAACACACGUUGUGGUAUAUUACCUGUUA [U2G G69U] | 0.116
GGCCUCUUUCACGUGCGCGUGAAACAGAGAAGUGAACCAGAGAAACACACGUUGUGGUAUAUUACCUGGUA [U2G G25C] | 0.137
GCCCUCUUUCACGAGCGCGUGAAAGAGAGAAGUGAACCAGAGAAACACACGUUGUGGUAUAUUACCUGGUA [U2C U14A] | 0.0424
GGCCUCUUUCACGUGCGCGUGAAAGAGAGAAGUAAACCAGAGAAACACACGUUGUGGUAUAUUACCUGGUA [U2G G34A] | 0.37
GGCCUCUUUCACGUGCGGGUGAAAGAGAGAAGUGAACCAGAGAAACACACGUUGUGGUAUAUUACCUGGUA [U2G C18G] | 0.373
GGCCUCUUUCACGUGCGAGUGAAAGAGAGAAGUGAACCAGAGAAACACACGUUGUGGUAUAUUACCUGGUA [U2G C18A] | 0.379
GGCCUCUUUCACGUGCGCGUGAAAGAGAGAAGUGAACCAGAGAAACACACGUUGUGGGAUAUUACCUGGUA [U2G U58G] | 0.255
GGCCUCUUUCACGUGCGCGUGAAAGAGAGAAGUGAACCAGAGAAACACACGUUGUGGAAUAUUACCUGGUA [U2G U58A] | 0.263
GGACUCUUUCACGUGCGCGUGAAAGAGAGAAGUGAACCAGAGAAACACACGUUGUGGUAUAUUACCUGGUA [U2G C3A] | 0.786
GGCCUCUUUCACGUGCGCGUGAAAGAGAGAAGUGAACCAGAGAAACACACGUUGUGGUAUGUUACCUGGUA [U2G A61G] | 0.15
GGCCUCUUUCACGUGCGCGUGAAAGAGAGAAGUGAACCAGAGAAACACACGUUGUGGUAUCUUACCUGGUA [U2G A61C] | 0.109

Variant | self-cleavage
GGCCUCUCUCACGUGCGCGUGAAAGAGAGAAGUGAACCAGAGAAACACACGUUGUGGUAUAUUACCUGGUA [U2G U8C] | 0.255
GGCCUCUUUCACGUGCGCGUGAAAGAGAGAAGUGAACCAGAGAAACACACGUUGUGGUGUAUUACCUGGUA [U2G A59G] | 0.225
GGCCUCUUUCACGUGCGCGUGAAAGAGAGAAGUGAACGAGAGAAACACACGUUGUGGUAUAUUACCUGGUA [U2G C38G] | 0.172
GGCCUCUUUCACGUGCGCGUGAAAGAGAGAAGUGAACAAGAGAAACACACGUUGUGGUAUAUUACCUGGUA [U2G C38A] | 0.143
GGCCUCUUUCACGUGCGCGUGAAAGAGAGAAGUGAACCAGAGAAACACACGUUGUGGUAUAUUGCCUGGUA [U2G A64G] | 0.159
GGCCUCUUUCACGUGCGCGUGAAAGAGAGAAGUGAACCAGAGAAACACACGUUGUGGUAUAUUCCCUGGUA [U2G A64C] | 0.165
GGCCUCUUUCACGUGCGCGUGAAAGAGAGAAGUGAACCAGAGAAACACACGUUCUGGUAUAUUACCUGGUA [U2G G54C] | 0.155
GCCCUCUUUCACGUGCGCGUGAAAGAGAGAAGUGAACCAGAGAAACACACGUUGUGGUAUAUUACCGGGUA [U2C U67G] | 0.0822
GGCCUCUUUCACGUACGCGUGAAAGAGAGAAGUGAACCAGAGAAACACACGUUGUGGUAUAUUACCUGGUA [U2G G15A] | 0.55
GGCCUCUUUCACGUGCGCGUGAAAGAGAGAAGUGAACCAGAGAAACACACGUUGUGGUAAAUUACCUGGUA [U2G U60A] | 0.402
GGCCUCUUUUACGUGCGCGUGAAAGAGAGAAGUGAACCAGAGAAACACACGUUGUGGUAUAUUACCUGGUA [U2G C10U] | 0.269
GGCCUCUUUGACGUGCGCGUGAAAGAGAGAAGUGAACCAGAGAAACACACGUUGUGGUAUAUUACCUGGUA [U2G C10G] | 0.287
GGCCUCUUUCACGUGCGCGUGAAAGAGAGAAGUGAACCAGAGAAACACGCGUUGUGGUAUAUUACCUGGUA [U2G A49G] | 0.241
GGCCUCUUUCACGUGCGCGUGAAAGAGAGAAGUGAACCAGAGAAACACCCGUUGUGGUAUAUUACCUGGUA [U2G A49C] | 0.0246
GGCCUCUUUCACGUGCGCGUGAAAGAGAGAAGUGAACCAGACAAACACACGUUGUGGUAUAUUACCUGGUA [U2G G42C] | 0.252
GGCCUCUUUCACGAGCGCGUGAAAGAGAGAAGUGAACCAGAGAAACACACGUUGUGGUAUAUUACCUGGUA [U2G U14A] | 0.216
GGCCUCUUUCACGUGCGCGUGAAAGAGAGAAGUGAACCAGAGAAACACACGUUGUGGUAUAUUACUUGGUA [U2G C66U] | 0.163
GGCCUCUUUCACUUGCGCGUGAAAGAGAGAAGUGAACCAGAGAAACACACGUUGUGGUAUAUUACCUGGUA [U2G G13U] | 0.246
GGCCUCUUUCACCUGCGCGUGAAAGAGAGAAGUGAACCAGAGAAACACACGUUGUGGUAUAUUACCUGGUA [U2G G13C] | 0.29
GCCCUCGUUCACGUGCGCGUGAAAGAGAGAAGUGAACCAGAGAAACACACGUUGUGGUAUAUUACCUGGUA [U2C U7G] | 0.105
GCCCUCCUUCACGUGCGCGUGAAAGAGAGAAGUGAACCAGAGAAACACACGUUGUGGUAUAUUACCUGGUA [U2C U7C] | 0.246
GGCCUCUUUCACGUGCGCGUGAAAGAGAGAAGUGAACCAGAGACACACACGUUGUGGUAUAUUACCUGGUA [U2G A44C] | 0.108
GGCCUCUUUCACGUGCGCGUGAAAGAGAGAAGUGAACCAGAGAAACGCACGUUGUGGUAUAUUACCUGGUA [U2G A47G] | 0.0815
GGCCUCUUUCACGUGCGCGUGAAAGAGAGAAGUGAACCAGAGAAACCCACGUUGUGGUAUAUUACCUGGUA [U2G A47C] | 0.358
GGCCUCUUUCACGUGCGCGUGAAAGAGAGAAGUGAACCAGUGAAACACACGUUGUGGUAUAUUACCUGGUA [U2G A41U] | 0.71
GGCCUAUUUCACGUGCGCGUGAAAGAGAGAAGUGAACCAGAGAAACACACGUUGUGGUAUAUUACCUGGUA [U2G C6A] | 0.196

Variant | self-cleavage
GGCCUUUUUCACGUGCGCGUGAAAGAGAGAAGUGAACCAGAGAAACACACGUUGUGGUAUAUUACCUGGUA [U2G C6U] | 0.303
GGCCUGUUUCACGUGCGCGUGAAAGAGAGAAGUGAACCAGAGAAACACACGUUGUGGUAUAUUACCUGGUA [U2G C6G] | 0.155
GGCCUCUUUCACGUGCGCGUGAAAGAGAGAAGUGAACCAGAGAAACAAACGUUGUGGUAUAUUACCUGGUA [U2G C48A] | 0.213
GGCCUCUUUCACGUGCGCGUGAAAGAGAGAAGUGAACCAGAGAAACAGACGUUGUGGUAUAUUACCUGGUA [U2G C48G] | 0.116
GGCCUCUUUCACGUGCGCGUGAAAGAGAGAAGUGAACCAGAGAAAUACACGUUGUGGUAUAUUACCUGGUA [U2G C46U] | 0.11
GGCCUCUUUCACGUGCGCGCGAAAGAGAGAAGUGAACCAGAGAAACACACGUUGUGGUAUAUUACCUGGUA [U2G U20C] | 0.385
GGCCUCUUUCACGUGCGCGAGAAAGAGAGAAGUGAACCAGAGAAACACACGUUGUGGUAUAUUACCUGGUA [U2G U20A] | 0.225
GGCCUCUUUCACGUGCGCGGGAAAGAGAGAAGUGAACCAGAGAAACACACGUUGUGGUAUAUUACCUGGUA [U2G U20G] | 0.186
GGCCUCUUUCACGUGUGCGUGAAAGAGAGAAGUGAACCAGAGAAACACACGUUGUGGUAUAUUACCUGGUA [U2G C16U] | 0.478
GGCCUCUUUCACGUGGGCGUGAAAGAGAGAAGUGAACCAGAGAAACACACGUUGUGGUAUAUUACCUGGUA [U2G C16G] | 0.267
GGCCUCUUUCACGUGCGCAUGAAAGAGAGAAGUGAACCAGAGAAACACACGUUGUGGUAUAUUACCUGGUA [U2G G19A] | 0.311
GGCCUCUUUCACGUGCGCGUGAAAGAGAGAAGUGAACCAGAGAAACACACGUAGUGGUAUAUUACCUGGUA [U2G U53A] | 0.195
GGCCUCUUUCACGUGCGCGUCAAAGAGAGAAGUGAACCAGAGAAACACACGUUGUGGUAUAUUACCUGGUA [U2G G21C] | 0.364
GGCCUCUUUCACGUGCGCGUUAAAGAGAGAAGUGAACCAGAGAAACACACGUUGUGGUAUAUUACCUGGUA [U2G G21U] | 0.236
GGCCUCUUUCACGUGCGCGUGAAAGAGCGAAGUGAACCAGAGAAACACACGUUGUGGUAUAUUACCUGGUA [U2G A28C] | 0.384
GGCCUCUUUCACGUGCGCGUGAAAGAGAGUAGUGAACCAGAGAAACACACGUUGUGGUAUAUUACCUGGUA [U2G A30U] | 0.117
GGCCUCUUUCACGUGCGCGUGAAAGAGAGCAGUGAACCAGAGAAACACACGUUGUGGUAUAUUACCUGGUA [U2G A30C] | 0.108
GCCCUCUUUCACGUGCGCGUGAAAGAGAGAAGUGAACCAGAGAAACACACGUUGUGGGAUAUUACCUGGUA [U2C U58G] | 0.148
GGCCUCUUUCACGUGCACGUGAAAGAGAGAAGUGAACCAGAGAAACACACGUUGUGGUAUAUUACCUGGUA [U2G G17A] | 0.529
GGCCUCUUUCACGUGCUCGUGAAAGAGAGAAGUGAACCAGAGAAACACACGUUGUGGUAUAUUACCUGGUA [U2G G17U] | 0.327
GCCCUCUUUCACGUGCGCGCGAAAGAGAGAAGUGAACCAGAGAAACACACGUUGUGGUAUAUUACCUGGUA [U2C U20C] | 0.273
GCCCUCUUUCACGUGCGCGUGAAAGAGAGAAGUGAACCAGAGAAACACACGUUGUGGUAUAAUACCUGGUA [U2C U62A] | 0.0408
GGCCUCUUACACGUGCGCGUGAAAGAGAGAAGUGAACCAGAGAAACACACGUUGUGGUAUAUUACCUGGUA [U2G U9A] | 0.242
GGCCUCUUGCACGUGCGCGUGAAAGAGAGAAGUGAACCAGAGAAACACACGUUGUGGUAUAUUACCUGGUA [U2G U9G] | 0.206
